In patent US20110263454A1, “Methods of Identifying Functional Characteristics of Promoters, Transcription Modifying Proteins and Transcription Modulating Agents” (Salk Institute for Biological Studies, priority 2008, published 2011):

B1: ERR2: Estrogen Related Receptor β (NR3B2, ERRb), cDNA driver (protein, UniProt O95718 1-433, looked up)
Steroid hormone receptor ERR2: MSSDDRHLGSSCGSFIKTEPSSPSSGIDALSHHSPSGSSDASGGFGLALGTHANGLDSPPMFAGAGLGGTPCRKSYEDCASGIMEDSAIKCEYMLNAIPKRLCLVCGDIASGYHYGVASCEACKAFFKRTIQGNIEYSCPATNECEITKRRRKSCQACRFMKCLKVGMLKEGVRLDRVRGGRQKYKRRLDSESSPYLSLQISPPAKKPLTKIVSYLLVAEPDKLYAMPPPGMPEGDIKALTTLCDLADRELVVIIGWAKHIPGFSSLSLGDQMSLLQSAWMEILILGIVYRSLPYDDKLVYAEDYIMDEEHSRLAGLLELYRAILQLVRRYKKLKVEKEEFVTLKALALANSDSMYIEDLEAVQKLQDLLHEALQDYELSQRHEEPWRTGKLLLTLPLLRQTAAKAVQHFYSVKLQGKVPMHKLFLEMLEAKV
B2: ERR3: Estrogen Related Receptor γ (NR3B3, ERRg), cDNA driver (protein, UniProt P62508 1-458, looked up)
Estrogen-related receptor …: MDSVELCLPESFSLHYEEELLCRMSNKDRHIDSSCSSFIKTEPSSPASLTDSVNHHSPGGSSDASGSYSSTMNGHQNGLDSPPLYPSAPILGGSGPVRKLYDDCSSTIVEDPQTKCEYMLNSMPKRLCLVCGDIASGYHYGVASCEACKAFFKRTIQGNIEYSCPATNECEITKRRRKSCQACRFMKCLKVGMLKEGVRLDRVRGGRQKYKRRIDAENSPYLNPQLVQPAKKPYNKIVSHLLVAEPEKIYAMPDPTVPDSDIKALTTLCDLADRELVVIIGWAKHIPGFSTLSLADQMSLLQSAWMEILILGVVYRSLSFEDELVYADDYIMDEDQSKLAGLLDLNNAILQLVKKYKSMKLEKEEFVTLKAIALANSDSMHIEDVEAVQKLQDVLHEALQDYEAGQHMEDPRRAGKMLMTLPLLRQTSTKAVQHFYNIKLEGKVPMHKLFLEMLEAKV
B3: CTF3: COUP-TF3 (NR2F6), cDNA driver (protein, UniProt P10588 1-404, looked up)
Nuclear receptor subfamily 2 …: MAMVTGGWGGPGGDTNGVDKAGGYPRAAEDDSASPPGAASDAEPGDEERPGLQVDCVVCGDKSSGKHYGVFTCEGCKSFFKRSIRRNLSYTCRSNRDCQIDQHHRNQCQYCRLKKCFRVGMRKEAVQRGRIPHSLPGAVAASSGSPPGSALAAVASGGDLFPGQPVSELIAQLLRAEPYPAAAGRFGAGGGAAGAVLGIDNVCELAARLLFSTVEWARHAPFFPELPVADQVALLRLSWSELFVLNAAQAALPLHTAPLLAAAGLHAAPMAAERAVAFMDQVRAFQEQVDKLGRLQVDSAEYGCLKAIALFTPDACGLSDPAHVESLQEKAQVALTEYVRAQYPSQPQRFGRLLLRLPALRAVPASLISQLFFMRLVGKTPIETLIRDMLLSGSTFNWPYGSGQ
B4: CTF2: COUP-TF2 (NR2F2), cDNA driver (protein, UniProt P24468 1-414, looked up)
COUP transcription factor 2: MAMVVSTWRDPQDEVPGSQGSQASQAPPVPGPPPGAPHTPQTPGQGGPASTPAQTAAGGQGGPGGPGSDKQQQQQHIECVVCGDKSSGKHYGQFTCEGCKSFFKRSVRRNLSYTCRANRNCPIDQHHRNQCQYCRLKKCLKVGMRREAVQRGRMPPTQPTHGQFALTNGDPLNCHSYLSGYISLLLRAEPYPTSRFGSQCMQPNNIMGIENICELAARMLFSAVEWARNIPFFPDLQITDQVALLRLTWSELFVLNAAQCSMPLHVAPLLAAAGLHASPMSADRVVAFMDHIRIFQEQVEKLKALHVDSAEYSCLKAIVLFTSDACGLSDVAHVESLQEKSQCALEEYVRSQYPNQPTRFGKLLLRLPSLRTVSSSVIEQLFFVRLVGKTPIETLIRDMLLSGSSFNWPYMAIQ
B5: CTF1: COUP-TF1 (NR2F1), cDNA driver (protein, UniProt P10589 1-423, looked up)
COUP transcription factor 1: MAMVVSSWRDPQDDVAGGNPGGPNPAAQAARGGGGGAGEQQQQAGSGAPHTPQTPGQPGAPATPGTAGDKGQGPPGSGQSQQHIECVVCGDKSSGKHYGQFTCEGCKSFFKRSVRRNLTYTCRANRNCPIDQHHRNQCQYCRLKKCLKVGMRREAVQRGRMPPTQPNPGQYALTNGDPLNGHCYLSGYISLLLRAEPYPTSRYGSQCMQPNNIMGIENICELAARLLFSAVEWARNIPFFPDLQITDQVSLLRLTWSELFVLNAAQCSMPLHVAPLLAAAGLHASPMSADRVVAFMDHIRIFQEQVEKLKALHVDSAEYSCLKAIVLFTSDACGLSDAAHIESLQEKSQCALEEYVRSQYPNQPSRFGKLLLRLPSLRTVSSSVIEQLFFVRLVGKTPIETLIRDMLLSGSSFNWPYMSIQCS
B6: Erb: Estrogen Receptor β (NR3A2, ERb), cDNA driver (protein, UniProt Q92731 1-530, looked up)
Estrogen receptor beta: MDIKNSPSSLNSPSSYNCSQSILPLEHGSIYIPSSYVDSHHEYPAMTFYSPAVMNYSIPSNVTNLEGGPGRQTTSPNVLWPTPGHLSPLVVHRQLSHLYAEPQKSPWCEARSLEHTLPVNRETLKRKVSGNRCASPVTGPGSKRDAHFCAVCSDYASGYHYGVWSCEGCKAFFKRSIQGHNDYICPATNQCTIDKNRRKSCQACRLRKCYEVGMVKCGSRRERCGYRLVRRQRSADEQLHCAGKAKRSGGHAPRVRELLLDALSPEQLVLTLLEAEPPHVLISRPSAPFTEASMMMSLTKLADKELVHMISWAKKIPGFVELSLFDQVRLLESCWMEVLMMGLMWRSIDHPGKLIFAPDLVLDRDEGKCVEGILEIFDMLLATTSRFRELKLQHKEYLCVKAMILLNSSMYPLVTATQDADSSRKLAHLLNAVTDALVWVIAKSGISSQQQSMRLANLLMLLSHVRHASNKGMEHLLNMKCKNVVPVYDLLLEMLNAHVLRGCKSSITGSECSPAEDSKSKEGSQNPQSQ

Legend:
[1] = system: mUCP3 promoter; experiment: NHR-promoter luciferase screen, mUCP3 promoter; type: cell-based, mouse; conditions: for Normalized Luc. act., normalized to control / Luc. act., normalized to lacZ: mUCP3 promoter reporter; for Normalized Luc. act., normalized to control: HR without or with its ligand, relative to control; for Luc. act., normalized to lacZ: hormone receptor (HR) without or with its ligand; for mUCP3 promoter reporter activity: transcription factor +/- ligand, control = 1.00
Summary of the method: (§1)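 CV-1 cells were co-transfected with 50 ng NHR (homodimer or NHR/RXR heterodimer), 100 ng promoter-luciferase construct and 50 ng LacZ. Luciferase was normalized to LacZ and to a no-NHR/no-ligand control.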

[2] = system: mADRP promoter; experiment: NHR-promoter luciferase screen, mADRP promoter; type: cell-based, mouse; conditions: for Luc. act., normalized to lacZ / Normalized Luc. act., normalized to control: ADRP promoter, HR/ligand component; for mADRP promoter reporter activity: transcription factor +/- ligand, control = 1.00
Summary of the method: as §1

[3] = system: mPer1 promoter; experiment: NHR-promoter luciferase screen, mPer1 promoter; type: cell-based, mouse; conditions: for Luc. act., normalized to lacZ / Normalized Luc. act., normalized to control: Per1 promoter reporter, co-transfected HR, with or without its ligand; for Normalized Luc. act., normalized to control: relative to control; for luciferase activity normalized to lacZ activity and to a control, mPer1: mPer1 promoter-luciferase, CV-1 cells, NHR +/- ligand, control = 1.00
Summary of the method: as §1

[4] = system: hCYP3A4 promoter; experiment: NHR-promoter luciferase screen, hCYP3A4 promoter; type: cell-based, human; conditions: for Luc. act., normalized to lacZ / Normalized Luc. act., normalized to control: CYP3A4 promoter, HR/ligand component; for hCYP3A4 promoter reporter activity: transcription factor +/- ligand, control = 1.00
Summary of the method: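 CV-1 cells co-transfected with NHR homodimer or NHR/RXR heterodimer (pcDNA3.1, C-terminal V5H6 tag), promoter-luciferase construct and LacZ transfection control. Orphan receptors screened without ligand. Luciferase normalized to LacZ and to no-NHR/no-ligand control.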

[5] = system: mABCA1 promoter; experiment: NHR-promoter luciferase screen, mABCA1 promoter; type: cell-based, mouse; conditions: for Luc. act., normalized to lacZ / Normalized Luc. act., normalized to control: ABCA1 promoter, hormone receptor with or without its ligand; for Normalized Luc. act., normalized to control: relative to control; for mABCA1 promoter reporter activity: transcription factor +/- ligand, control = 1.00
Summary of the method: as §1

[6] = system: MCP-1 promoter; experiment: NHR-promoter luciferase screen, MCP-1 promoter; type: cell-based; conditions: for Normalized Luc. act., normalized to control / Luc. act., normalized to lacZ: MCP-1 promoter reporter; for Normalized Luc. act., normalized to control: HR without or with its ligand, relative to control; for Luc. act., normalized to lacZ: hormone receptor (HR) without or with its ligand; for mMCP-1 promoter reporter activity: transcription factor +/- ligand, control = 1.00
Summary of the method: as §1

Molecule	Normalized Luc. act., normalized to control [1]	Luc. act., normalized to lacZ [1]	mUCP3 promoter reporter activity [1]	Luc. act., normalized to lacZ [2]	Normalized Luc. act., normalized to control [2]	mADRP promoter reporter activity [2]	Luc. act., normalized to lacZ [3]	Normalized Luc. act., normalized to control [3]	luciferase activity normalized to lacZ activity and to a control, mPer1 [3]	Luc. act., normalized to lacZ [4]	Normalized Luc. act., normalized to control [4]	hCYP3A4 promoter reporter activity [4]	Luc. act., normalized to lacZ [5]	Normalized Luc. act., normalized to control [5]	mABCA1 promoter reporter activity [5]	Normalized Luc. act., normalized to control [6]	Luc. act., normalized to lacZ [6]	mMCP-1 promoter reporter activity [6]
B1	3.3	2.2	3.32	874.7	1.8	1.76	328.2	2.3	2.28	15.5	3.5	3.49	33.0	5.9	5.88	8.8	946.7	8.84
B2	3.1	2.1	3.06			3.37	226.8	1.6	1.58	4.5	1.0	1.02	11.4	2.0	2.04	4.6	487.3	4.55
B3	0.8	0.6	0.82	462.7	0.9	0.93	159.0	1.1	1.10	6.1	1.4	1.37	5.6	1.0	1.01	1.6	175.5	1.64
B4	0.9	0.6	0.91	893.8	1.8	1.80	346.6	2.4	2.41	2.7	0.6	0.61	4.7	0.8	0.84	0.0		0.00
B5	0.9	0.6	0.93	393.3	0.8	0.79	283.8	2.0	1.97	2.6	0.6	0.59	5.5	1.0	0.99	0.0		0.00
B6	1.3	0.9	1.28	536.9	1.1	1.08	79.1	0.5	0.55	6.0	1.3	1.35	12.4	2.2	2.21	1.4	146.9	1.37
